Measured values: patent publication US20240132625A1
One block for each substance: values may come before it.

Tests used:
[1] = target: CD20 immobilized on a sensor tip (UniProt P11836); assay: BLI, CD20 on tip
[2] = target: CD20 immobilized on a sensor tip (UniProt P11836); assay: BLI, human CD20 immobilized on the sensor tip, antibody in half dilution from 50 nM, 1:1 fit
CD20 on SU-DHL5 cells = CD20 on SU-DHL5 cells (UniProt P11836); assay: flow cytometry on SU-DHL5 cells, muGFP signal, 10 nM antibody
[3] = target: CD20 immobilized on a sensor tip (UniProt P11836); assay: BLI, CD20 on tip; effective KD
[4] = target: CD20 immobilized on a sensor tip (UniProt P11836); assay: BLI, […], antibody 6.25-50.0 nM, 1:1 fit
[5] = target: HER2 ectodomain (biotinylated Her2/ERBB2, Sino Biological) (human) (UniProt P04626); assay: BLI, HER2 ectodomain immobilized on the sensor tip, antibody in half dilution from 500 nM, 1:1 fit
[6] = target: HER2 ectodomain (biotinylated Her2/ERBB2, Sino Biological) (human) (UniProt P04626); assay: BLI, HER2 ectodomain on tip; effective KD
[7] = target: HER2 ectodomain (biotinylated Her2/ERBB2, Sino Biological) (human) (UniProt P04626); assay: BLI, HER2 ectodomain immobilized on the sensor tip, antibody in half dilution from 250 nM, 1:1 fit
[8] = target: HER2 ectodomain (biotinylated Her2/ERBB2, Sino Biological) (human) (UniProt P04626); assay: BLI, antigen on streptavidin tip, 1:1 fit
[9] = target: HER2 ectodomain (biotinylated Her2/ERBB2, Sino Biological) (human) (UniProt P04626); assay: BLI, […], antibody 3.1-[…], 1:1 fit
[10] = target: HER2 ectodomain (biotinylated Her2/ERBB2, Sino Biological) (human) (UniProt P04626); assay: BLI, antigen on streptavidin tip; below the instrument's limit
[11] = target: HER2 ectodomain (biotinylated Her2/ERBB2, Sino Biological) (human) (UniProt P04626); assay: BLI, […], antibody 6.25-50 nM, 1:1 fit
[12] = target: HER2 ectodomain (biotinylated Her2/ERBB2, Sino Biological) (human) (UniProt P04626); assay: BLI, HER2 ectodomain on tip
[13] = target: Receptor-binding domain of the SARS-CoV-2 spike protein (biotinylated, Acrobio system) (SARS-CoV-2) (UniProt P0DTC2); assay: BLI, antigen on streptavidin tip
[14] = target: Receptor-binding domain of the SARS-CoV-2 spike protein (biotinylated, Acrobio system) (SARS-CoV-2) (UniProt P0DTC2); assay: BLI, antigen on streptavidin tip, 1:1 fit
[15] = target: Receptor-binding domain of the SARS-CoV-2 spike protein (biotinylated, Acrobio system) (SARS-CoV-2) (UniProt P0DTC2); assay: BLI, antigen on streptavidin tip; below the instrument's limit

Kd [1]: 30400 pM
koff [2]: 0.01 s⁻¹
kon [2]: 330000 M⁻¹ s⁻¹
Substance: Obinutuzumab(Y101L) (antibody)

percent bound to SU-DHL5 cells at 10 nM (CD20 on SU-DHL5 cells): 90%
Substance: SLy1(254-316)^(H)-Obinutuzumab(F101L)/HetFc-SDF-1α(8-67)^(H) labeled with muGFP at the C-terminus of the light chain (antibody)

Kd [3]: 130 pM
koff [4]: 2.3e-05 s⁻¹
kon [4]: 180000 M⁻¹ s⁻¹
Substance: SLy1(254-316)^(H)-Obinutuzumab(Y101L)/HetFc-SDF-1α(8-67)^(H) (antibody)

Kd [5]: 373000 pM
Substance: SLy1(254-316)^(H)-Trastuzumab(N30A/H91A/Y100A)/HetFc (antibody)

Kd [6]: < 800 pM
Kd [7]: 800 pM
koff [7]: 5.8e-05 s⁻¹
kon [7]: 71000 M⁻¹ s⁻¹
Substance: SLy1(254-316)^(H)-Trastuzumab(N30A/H91A/Y100A)/HetFc-SDF-1α(8-67)^(H) (antibody)

Kd [8]: 2100 pM
kon [8]: 190000 M⁻¹ s⁻¹
Substance: Trastuzumab(N30A/H91A) (antibody)

Kd [6]: < 10 pM
Substance: Trastuzumab(N30A/H91A)-HomoCC^(H) (antibody)

kon [8]: 290000 M⁻¹ s⁻¹
kon [9]: 310000 M⁻¹ s⁻¹
Kd [10]: < 10 pM
Substance: Trastuzumab(N30A/H91A)-SDF-1α(8-67)^(H) (antibody)

Kd [6]: < 10 pM
koff [11]: < 1e-07 s⁻¹
kon [11]: 189000 M⁻¹ s⁻¹
Substance: Trastuzumab(N30A/H91A)-SDF-1α(8-67)^(L) (antibody)

Kd [12]: 243000 pM
Substance: Trastuzumab(N30A/H91A/Y100A) (antibody)

Substance: glCV30-SDF-1α(8-67)^(H) (antibody)
fold increase of binding avidity over glCV30 [13]: > 130 fold
kon [14]: 770000 M⁻¹ s⁻¹
Kd [15]: < 10 pM
